Data on 2 molecules can be found in patent US20100316644A1 (ACCELERON PHARMA, published 2010).

First the molecules themselves.
B1: ActRIIB(20-134)-hFc (Fc fusion, not shown: a dimerising Fc or GST)
chain: GRGEAETRECIYYNANWELERTNQSGLERCEGEQDKRLHCYASWRNSSGTIELVKKGCWLDDFNCYDRQECVATEENPQVYFCCCEGNFCNERFTHLPEAGGPEVTYEPPPTAPT
notes: The residue range comes from the construct name; also called full-length counterpart ActRIIB(20-134)-hFc

Holding throughout (experiment): Biacore, steady-state affinity fit
(In SPR one partner is held on a chip, and binding of the other changes the refractive index at the surface.)

One assay deals with T1, Activin A (UniProt P08476 311-426).
T1 sequence (looked up): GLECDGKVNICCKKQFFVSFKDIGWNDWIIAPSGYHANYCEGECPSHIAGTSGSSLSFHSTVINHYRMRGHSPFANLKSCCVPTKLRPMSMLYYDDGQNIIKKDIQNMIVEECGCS
The source says:
(§1) Kd values were obtained by steady-state affinity fit due to very rapid association and dissociation of the complex, which prevented accurate determination of kₒₙ and koff.

The next assay deals with T2, Activin B (UniProt P09529 293-407).
T2 sequence (looked up): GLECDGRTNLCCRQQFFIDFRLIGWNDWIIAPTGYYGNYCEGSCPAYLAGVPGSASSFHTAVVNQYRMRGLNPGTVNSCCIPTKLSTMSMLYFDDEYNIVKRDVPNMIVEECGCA
Description: as §1

For the assay “ActRIIB(20-134)-hFc”, the target named is B1.
Description: as §1

By Kd is commonly meant a measure of binding affinity in units of concentration. The low end stands for a tighter complex, the high end for a looser complex.

B1: the Kd in the assay with Activin A came to 0.016 nM; with Activin B, 0.012 nM.

B2: Growth and Differentiation Factor-11 (GDF11) (ligand, UniProt O95390 299-407, looked up)
chain: NLGLDCDEHSSESRCCRYPLTVDFEAFGWDWIIAPKRYKANYCSGQCEYMFMQKYPHTHLVQQANPRGSAGPCCTPTKMSPINMLYFNDKQQIIYGKIPGMVVDRCGCS
notes: also called BMP11
In the assay with ActRIIB(20-134)-hFc, B2 yielded a Kd of 0.036 nM.
